Data as given in patent US12357692B2, “Method of treating influenza A” (MEDIMMUNE, LLC, priority 2016, dated 2025).

How the values were obtained:
[1] = Anti-drug antibody (ADA) responses in serum, electrochemiluminescent solution-phase bridging immunoassay; type: in vivo, human; settings: Days 15, 29 and 101 after single IV dose
Description: Blood samples were collected at Days 15(±1), 29(±2) and 101(±5) to evaluate anti-drug antibody (ADA) responses to MEDI8852 in serum using an electrochemiluminescent, solution-phase, bridging immunoassay. All ADA results were negative (i.e., no anti-drug antibody was found).

[2] = system: influenza A virus infection; settings: human, in vivo, iv
[3] = in vivo

Question: For “MEDI8852: human IgG1 kappa monoclonal antibody that binds the conserved stalk region of influenza HA protein; VH SEQ ID NO:2, VL SEQ ID NO:7”, which “anti-drug antibody (ADA) results” value [1] is on record?
Answer: negative

Question: What about the efficacy [2] of the same substance?
Answer: better than oseltamivir alone

Question: And the “half-life following a single IV dose” value ([3]; human, iv)?
Answer: 19.4 to 22.6 days

Question: And the PK dose linearity [3]?
Answer: dose-linear
